{
  "source": "patent US20260028424A1",
  "about": "(GRANULAR THERAPEUTICS, published 2026)",
  "binders": {"B1": {"name": "bispecific pair with alternative common light chain VL3: MH1 VH / 2.14_1 VH / VL3 (bispecific antibody, V domains shown)", "VH 1": "QVQLVQSGAEVKKPGASVKVSCKASGYTFTDYYMNWVRQAPGQGLEWMGRIYPGSGNTYYAQKFQGRVTMTRDTSTSTVYMELSSLRSEDTAVYYCARGVYYYDYWGQGTLVTVSS", "VH 2": "QVQLQESGPGLVKPSQTLSLTCTVSGGSISSGGYYWSWIRQHPGKGLEWIGIIYYSGSTYYNPSLKSRVTISVDTSKNQFSLKLNSVTAADTAVFYCARVAIVTTIPGGMDVWGQGTTVTVSS", "VL": "EIVLTQSPDFQSVTPKEKVTITCRASQGIRTNLAWYQQKPDQSPKLLIKAASSLQSGVPSRFSGSGSGTDFTLTINSLEAEDAATYYCQQYNSYPRTFGQGTKVEIK"}},
  "key": {"[1]": {"molecular_target": "c-Kit (antigen of the binding assay of FIG. 9A) (Homo sapiens (Human), UniProt P10721 26-524)", "sequence (P10721 26-524 limits assumed)": "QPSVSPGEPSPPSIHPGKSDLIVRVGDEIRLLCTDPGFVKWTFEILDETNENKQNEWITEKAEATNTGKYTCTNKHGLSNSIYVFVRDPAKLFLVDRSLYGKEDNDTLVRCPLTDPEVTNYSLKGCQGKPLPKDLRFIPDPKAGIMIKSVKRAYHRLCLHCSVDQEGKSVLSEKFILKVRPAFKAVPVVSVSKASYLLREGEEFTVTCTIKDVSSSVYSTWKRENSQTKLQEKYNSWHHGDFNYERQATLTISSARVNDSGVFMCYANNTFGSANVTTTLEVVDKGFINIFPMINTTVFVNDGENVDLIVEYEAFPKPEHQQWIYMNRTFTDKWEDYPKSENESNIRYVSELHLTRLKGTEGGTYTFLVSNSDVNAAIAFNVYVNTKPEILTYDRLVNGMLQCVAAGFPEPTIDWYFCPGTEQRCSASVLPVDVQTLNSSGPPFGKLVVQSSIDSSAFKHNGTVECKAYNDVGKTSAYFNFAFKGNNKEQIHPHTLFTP", "assay": "plate binding assay on Human c-KIT, A450-A630 (ratio corrected)"}, "[2]": {"molecular_target": "T1, CD203c (ENPP3) (antigen of the binding assay of FIG. 9B) (Homo sapiens (Human), UniProt O14638 31-875)", "T1 construct": "not shown: His tag of the recombinant protein", "T1 sequence": "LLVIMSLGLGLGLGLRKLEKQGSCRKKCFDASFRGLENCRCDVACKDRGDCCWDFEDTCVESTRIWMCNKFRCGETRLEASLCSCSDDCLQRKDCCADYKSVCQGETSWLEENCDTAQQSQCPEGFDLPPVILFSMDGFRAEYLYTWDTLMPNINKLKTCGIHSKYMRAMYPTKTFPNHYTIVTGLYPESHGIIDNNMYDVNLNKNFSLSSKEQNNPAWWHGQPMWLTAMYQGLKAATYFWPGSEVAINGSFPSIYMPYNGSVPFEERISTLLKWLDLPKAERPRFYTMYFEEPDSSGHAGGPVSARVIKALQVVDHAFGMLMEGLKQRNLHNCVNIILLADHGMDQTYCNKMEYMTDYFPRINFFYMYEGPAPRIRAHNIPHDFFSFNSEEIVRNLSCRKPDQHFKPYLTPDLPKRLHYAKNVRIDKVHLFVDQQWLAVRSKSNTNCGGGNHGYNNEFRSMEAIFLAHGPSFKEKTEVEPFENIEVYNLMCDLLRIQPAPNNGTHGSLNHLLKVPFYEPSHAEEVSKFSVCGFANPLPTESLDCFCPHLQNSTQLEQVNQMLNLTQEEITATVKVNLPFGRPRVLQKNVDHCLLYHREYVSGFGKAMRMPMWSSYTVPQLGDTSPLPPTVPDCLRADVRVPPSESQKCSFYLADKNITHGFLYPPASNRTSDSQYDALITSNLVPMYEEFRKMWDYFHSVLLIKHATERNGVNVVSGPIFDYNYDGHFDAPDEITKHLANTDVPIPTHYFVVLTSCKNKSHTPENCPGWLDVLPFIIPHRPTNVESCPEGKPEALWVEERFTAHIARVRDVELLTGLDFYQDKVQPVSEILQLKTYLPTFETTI", "assay": "plate binding assay on Human ENPP3, A450-A630 (ratio corrected)"}},
  "data": [
    {"binder": "B1", "values": [
      {"measurement": "EC50 (read off the curve)", "setting": "[1]", "result": "~0.1", "unit": "µg/mL"},
      {"measurement": "binding result", "setting": "[2]", "result": "no binding (tested: 200 µg/ml)"}
    ]}
  ]
}
